± gives the standard deviation of the averaged measurements.
Test: total protein half-life in vivo (active degradation + dilution); higher = more stable protein
[1] = E. coli NCM3722 delta-hslV, growth: N-lim chemostat, doubling time 6 h
[2] = E. coli NCM3722 delta-lon, growth: N-lim chemostat, doubling time 6 h
[3] = wild type E. coli NCM3722, growth: C-lim chemostat, doubling time 3 h
[4] = wild type E. coli NCM3722, growth: N-lim chemostat, doubling time 12 h
[5] = E. coli NCM3722 delta-clpP delta-lon delta-hslV, growth: N-lim chemostat, doubling time 6 h
[6] = E. coli NCM3722 delta-clpP, growth: N-lim chemostat, doubling time 6 h
[7] = E. coli NCM3722 delta-smpB, growth: N-lim chemostat, doubling time 6 h
[8] = wild type E. coli NCM3722, growth: N-lim chemostat, doubling time 6 h
[9] = wild type E. coli NCM3722, growth: C-lim chemostat, doubling time 6 h
[10] = wild type E. coli NCM3722, growth: C-lim chemostat, doubling time 12 h
[11] = wild type E. coli NCM3722, growth: P-lim chemostat, doubling time 12 h

MFAEYGVLNYWTYLVGAIFIVLVPGPNTLFVLKNSVSSGMKGGYLAACGVFIGDAVLMFLAWAGVATLIKTTPILFNIVRYLGAFYLLYLGSKILYATLKGKNSEAKSDEPQYGAIFKRALILSLTNPKAILFYVSFFVQFIDVNAPHTGISFFILAATLELVSFCYLSFLIISGAFVTQYIRTKKKLAKVGNSLIGLMFVGFAARLATLQS
total protein half-life in vivo [1]: 4.19 ± 0.057 h
total protein half-life in vivo [2]: 5.03 ± 0.45 h
total protein half-life in vivo [3]: > 4 h
total protein half-life in vivo [4]: 8.29 h

MNFRRLKYFVKIVDIGSLTQAAEVLHIAQPALSQQVATLEGELNQQLLIRTKRGVTPTDAGKILYTHARAILRQCEQAQLAVHNVGQALSGQVSIGFAPGTAASSITMPLLQAVRAEFPEIVIYLHENSGAVLNEKLINHQLDMAVIYEHSPVAGVSSQALLKEDLFLVGTQDCPGQSVDVNAIAQMNLFLPSDYSAIRLRVDEAFSLRRLTAKVIGEIESIATLTAAIASGMGVAVLPESAARSLCGAVNGWMSRITTPSMSLSLSLNLPARANLSPQAQAVKELLMSVISSPVMEKRQWQLVS
total protein half-life in vivo [5]: 6.26 ± 0.89 h
total protein half-life in vivo [6]: 2.6 ± 0.032 h
total protein half-life in vivo [1]: 0.485 ± 0.11 h
total protein half-life in vivo [2]: 0.469 h
total protein half-life in vivo [7]: 1.83 ± 0.15 h
total protein half-life in vivo [8]: 0.978 ± 0.3 h
total protein half-life in vivo [4]: 1.31 ± 0.14 h

MNTDTFMCSSDEKQTRSPLSLYSEYQRMEIEFRAPHIMPTSHWHGQVEVNVPFDGDVEYLINNEKVNINQGHITLFWACTPHQLTDTGTCQSMAIFNLPMHLFLSWPLDKDLINHVTHGMVIKSLATQQLSPFEVRRWQQELNSPNEQIRQLAIDEIGLMLKRFSLSGWEPILVNKTSRTHKNSVSRHAQFYVSQMLGFIAENYDQALTINDVAEHVKLNANYAMGIFQRVMQLTMKQYITAMRINHVRALLSDTDKSILDIALTAGFRSSSRFYSTFGKYVGMSPQQYRKLSQQRRQTFPG [P0ACH8]
total protein half-life in vivo [6]: 2.09 ± 0.21 h
total protein half-life in vivo [1]: 2.5 h
total protein half-life in vivo [7]: 1.89 h
total protein half-life in vivo [3]: 2.14 ± 0.34 h
total protein half-life in vivo [9]: 3.43 ± 0.17 h
total protein half-life in vivo [10]: 4.03 ± 0.28 h
total protein half-life in vivo [11]: 4.99 ± 1.6 h

MDLLYRVKTLWAALRGNHYTWPAIDITLPGNRHFHLIGSIHMGSHDMAPLPTRLLKKLKNADALIVEADVSTSDTPFANLPACEALEERISEEQLQNLQHISQEMGISPSLFSTQPLWQIAMVLQATQAQKLGLRAEYGIDYQLLQAAKQQHKPVIELEGAENQIAMLLQLPDKGLALLDDTLTHWHTNARLLQQMMSWWLNAPPQNNDITLPNTFSQSLYDVLMHQRNLAWRDKLRAMPPGRYVVAVGALHLYGEGNLPQMLR
total protein half-life in vivo [5]: 5.23 h
total protein half-life in vivo [6]: 5.02 h
total protein half-life in vivo [1]: 5.67 h
total protein half-life in vivo [2]: 5.61 h
total protein half-life in vivo [7]: 5.46 ± 0.086 h
total protein half-life in vivo [3]: 2.97 ± 0.043 h
total protein half-life in vivo [10]: 11.5 h
total protein half-life in vivo [8]: 5.74 ± 0.45 h
total protein half-life in vivo [4]: 12.5 h
total protein half-life in vivo (wild type E. coli NCM3722, growth: P-lim chemostat, doubling time 6 h): 5.75 ± 0.62 h
total protein half-life in vivo [11]: 10.6 ± 0.083 h

MRRLLSVAPVLLWLITPLAFAQLPGITSQPLPGGGQSWSLPVQTLVFITSLTFIPAILLMMTSFTRIIIVFGLLRNALGTPSAPPNQVLLGLALFLTFFIMSPVIDKIYVDAYQPFSEEKISMQEALEKGAQPLREFMLRQTREADLGLFARLANTGPLQGPEAVPMRILLPAYVTSELKTAFQIGFTIFIPFLIIDLVIASVLMALGMMMVPPATIALPFKLMLFVLVDGWQLLVGSLAQSFYS [P0AC05]
total protein half-life in vivo [3]: 2.76 h
total protein half-life in vivo [9]: 6.05 h
total protein half-life in vivo [10]: 9.42 h
